According to patent publication US20240309087A1 (SHANGHAI JUNSHI BIOSCIENCES, published 2024):
Where a chain is given by its changes, count along the chain named.

T1: hCD112R mFC recombinant protein (human; murine, UniProt Q6DKI7 41-160)
T1 construct: range 41-160; expressed in 293E cells; also called hCD112R ECD mFC; hCD112R-ECD-mFC; not shown: murine IgG2a Fc domain (MX2-mFc vector)
T1 sequence (looked up): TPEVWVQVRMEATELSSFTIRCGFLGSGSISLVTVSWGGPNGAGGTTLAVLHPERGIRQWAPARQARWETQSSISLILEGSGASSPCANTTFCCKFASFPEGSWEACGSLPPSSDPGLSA

T2: human CD112R on Jurkat CD112R effector cells (human, UniProt Q6DKI7 1-326)
T2 sequence (looked up): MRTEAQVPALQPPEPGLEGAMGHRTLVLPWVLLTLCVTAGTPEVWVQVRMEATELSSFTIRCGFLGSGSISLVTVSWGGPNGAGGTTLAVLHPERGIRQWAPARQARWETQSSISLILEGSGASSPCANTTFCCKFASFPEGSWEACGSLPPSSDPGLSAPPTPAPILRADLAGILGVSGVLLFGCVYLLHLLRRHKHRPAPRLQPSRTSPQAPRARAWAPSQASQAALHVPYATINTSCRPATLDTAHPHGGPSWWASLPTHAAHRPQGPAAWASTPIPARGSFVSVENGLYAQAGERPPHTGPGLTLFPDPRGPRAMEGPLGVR

B1: Hu2 (antibody, IgG4, V domains shown)
VH: EVQLVESGGGLVQPGGSLRLSCAASGFTFSSYHMSWVRQAPGKGLELVAAINSNDINTYYLDTVKGRFTISRDIAKNSLYLQMNSLRAEDTAVYYCARHEDYYGFAMDYWGQGTLVTVSS
VL: AIQMTQSPSSLSASVGDRVTITCKASQSVTNDVAWYQQKPGKAPKLLIYYVSNHYTGVPSRFSGSGSGTDFTLTISSLQPEDFATYFCQQAYRSPWTFGQGTKLEIK
notes: humanized IgG4; also called Hu-02
B2: Hu51 (antibody, IgG4, V domains shown)
VH: B1 VH with Q13K, A49S, D55G, I74N
VL: EIVMTQSPPTLSLSPGERVTLSCKASQSVSNDVAWYQEKPGQAPRLLIYYVSHRFTGIPARFSGSGSGTDFTLTISSLQPEDFAVYYCHQAYRSPWTFGQGTKLEIK
notes: humanized IgG4
B3: Hu3 (antibody, IgG4, V domains shown)
VH: B1 VH
VL: B2 VL
notes: humanized IgG4; also called Hu-03
B4: Hu6 (antibody, IgG4, V domains shown)
VH: B1 VH
VL: B2 VL with E38Q, H53N, Y87F, H89Q
notes: humanized IgG4; also called Hu-06
B5: Hu14 (antibody, IgG4, V domains shown)
VH: EVQLVESGGGLVKPGGSLRLSCAASGFTFSSYHMSWVRQAPGKGLELVSAISRDGDSTYYPDTVKGRFTISRDNAKNSLYLQMNSLRAEDTAVYYCSRHEDYFGFAMDSWGQGTLVTVSS
VL: B1 VL
notes: humanized IgG4
B6: Hu9 (antibody, IgG4, V domains shown)
VH: B1 VH with Q13K, A49S
VL: B2 VL
notes: humanized IgG4; also called Hu-09
B7: Hu12 (antibody, IgG4, V domains shown)
VH: B1 VH with Q13K, A49S
VL: B2 VL with E38Q, H53N, Y87F, H89Q
notes: humanized IgG4
B8: Hu11 (antibody, IgG4, V domains shown)
VH: B1 VH with Q13K, A49S
VL: B1 VL with A1D, T30S, H54R, Y55F
notes: humanized IgG4
B9: Hu8 (antibody, IgG4, V domains shown)
VH: B1 VH with Q13K, A49S
VL: B1 VL
notes: humanized IgG4; also called Hu-08
B10: Hu5 (antibody, IgG4, V domains shown)
VH: B1 VH
VL: B1 VL with A1D, T30S, H54R, Y55F
notes: humanized IgG4; also called Hu-05
B11: Hu20 (antibody, IgG4, V domains shown)
VH: B5 VH with N74D, K76E
VL: B1 VL
notes: humanized IgG4
B12: Hu15 (antibody, IgG4, V domains shown)
VH: B5 VH
VL: B2 VL
notes: humanized IgG4
B13: Hu26 (antibody, IgG4, V domains shown)
VH: B5 VH with K13Q, S49A
VL: B1 VL
notes: humanized IgG4
B14: Hu53 (antibody, IgG4, V domains shown)
VH: B1 VH with Q13K, A49S, D55G, I74N
VL: B1 VL with A1D, T30S, H54R, Y55F
notes: humanized IgG4
B15: Hu56 (antibody, IgG4, V domains shown)
VH: B1 VH with V37I, D55G, I74N
VL: B1 VL
notes: humanized IgG4
B16: Hu27 (antibody, IgG4, V domains shown)
VH: B5 VH with K13Q, S49A
VL: B2 VL
notes: humanized IgG4
B17: Hu21 (antibody, IgG4, V domains shown)
VH: B5 VH with N74D, K76E
VL: B2 VL
notes: humanized IgG4

target: T1, hCD112R mFC recombinant protein; test: FACS competition, hCD112R mFc on CHO CD112 cells; IC50 COM701/IC50 antibody
Experimental: (§1) Cells CHO CD112 overexpressing human CD112 were co-incubated with a hCD112R mFc protein solution (5 μg/mL) prepared in a staining buffer (PBS+1% FBS), and the humanized anti-CD112R antibodies or the control antibodies at different concentrations (initial concentration: 100 μg/mL, 3-fold dilution, 10 concentration gradients) at 4° C. for 30 min. Unbound antibodies were then washed with a staining buffer and the cells were incubated with 1% (v/v) goat anti-mouse IgG Fc fluorescent secondary antibodies (Jackson ImmunoResearch) prepared in a staining buffer at 4° C. for 30 min in the dark. Finally, the cells were collected by using a flow cytometer (BD Canto II), and the fluorescent antibodies bound to the cell surface were detected. Raw data were analyzed by using FlowJo to obtain MFI values, and a four-parameter curve fitting was performed by using GraphPad Prism software to obtain IC₅₀ values. The positive control and the negative control were COM701 (anti-CD112R antibody, Compugen, obtained by expression and purification according to the sequences in US20180280506A1) and the anti-KLH hu-IgG4 antibody, respectively.

| Relative activity (%) | Binder |
| --- | --- |
| 92.9% | B1 |
| 69.2% | B2 |
| 93.9% | B3 |
| 89.1% | B4 |
| 162% | B5 |
| 97.5% | B6 |
| 95.1% | B7 |
| 91.6% | B8 |
| 86.1% | B9 |
| 90.2% | B10 |
| 159% | B11 |
| 109% | B12 |
| 145% | B13 |
| 75.7% | B14 |
| 71% | B15 |
| 155% | B16 |
| 146% | B17 |

target: T2, human CD112R on Jurkat CD112R effector …; test: cell-based or functional assay

| EC50, CD112R/CD112 reporter | Relative activity (%), EC50 COM701/EC50 antibody | Binder |
| --- | --- | --- |
| 0.0577 µg/mL | 110% | B1 |
| 0.0225 µg/mL | 332% | B2 |
| 0.038 µg/mL | 189% | B3 |
| 0.0529 µg/mL | 128% | B4 |
| 0.0225 µg/mL | 215% | B5 |
| 0.0385 µg/mL | 195% | B6 |
| 0.0542 µg/mL | 144% | B7 |
| 0.0529 µg/mL | 148% | B8 |
| 0.0633 µg/mL | 110% | B9 |
| 0.0461 µg/mL | 148% | B10 |
| 0.038 µg/mL | 135% | B11 |
| 0.0237 µg/mL | 209% | B12 |
| 0.0353 µg/mL | 183% | B13 |
| 0.023 µg/mL | 314% | B14 |
| 0.0243 µg/mL | 276% | B15 |
| 0.0328 µg/mL | 217% | B16 |
| 0.0285 µg/mL | 179% | B17 |

target: T1, hCD112R mFC recombinant protein; test: ELISA, coated hCD112R-ECD-mFC
Experimental: (§2) A plate was coated with a hCD112R-ECD-mFC protein (1.5 μg/mL) at a fixed concentration, and the humanized anti-CD112R antibodies diluted in a gradient (initial concentration: 1 μg/mL, 2.5-fold gradient dilution, 12 concentration gradients in total) were added to bind to the antigen. HRP-conjugated goat anti-human antibody IgG (Fc specific) (Sigma, A0170) was subjected to a 5000-fold dilution and used as a detection antibody for detection. The color development was performed with 0.1 mg/mL TMB, and finally stopped with 2 M hydrochloric acid. The plate was read at 420 nm/620 nm. EC₅₀ was obtained by fitting with a four-parameter logistic regression (4PL) model. The […] were COM701 (anti-CD112R antibody, Compugen, obtained by expression and purification according to the sequences in US20180280506A1) and the anti-KLH hu-IgG4 antibody.

| EC50 | Binder |
| --- | --- |
| 0.00303 µg/mL | B1 |
| 0.00663 µg/mL | B2 |
| 0.00355 µg/mL | B3 |
| 0.00271 µg/mL | B4 |
| 0.00443 µg/mL | B5 |
| 0.00345 µg/mL | B6 |
| 0.00288 µg/mL | B7 |
| 0.00275 µg/mL | B8 |
| 0.00309 µg/mL | B9 |
| 0.00275 µg/mL | B10 |
| 0.00518 µg/mL | B11 |
| 0.00451 µg/mL | B12 |
| 0.00351 µg/mL | B13 |
| 0.00541 µg/mL | B14 |
| 0.00475 µg/mL | B15 |
| 0.00442 µg/mL | B16 |
| 0.0029 µg/mL | B17 |

target: T1, hCD112R mFC recombinant protein; test: ELISA, coated hCD112R-ECD-mFC; EC50 COM701/EC50 antibody
Experimental: as §2

| Relative activity (%) | Binder |
| --- | --- |
| 141% | B1 |
| 138% | B2 |
| 120% | B3 |
| 158% | B4 |
| 129% | B5 |
| 114% | B6 |
| 136% | B7 |
| 143% | B8 |
| 127% | B9 |
| 155% | B10 |
| 128% | B11 |
| 127% | B12 |
| 190% | B13 |
| 169% | B14 |
| 193% | B15 |
| 137% | B16 |
| 229% | B17 |

target: T1, hCD112R mFC recombinant protein; test: FACS competition, hCD112R mFc on CHO CD112 cells
Experimental: as §1

| IC50 | Binder |
| --- | --- |
| 4.28 µg/mL | B1 |
| 3.48 µg/mL | B2 |
| 4.24 µg/mL | B3 |
| 4.46 µg/mL | B4 |
| 2.21 µg/mL | B5 |
| 4.08 µg/mL | B6 |
| 4.18 µg/mL | B7 |
| 4.34 µg/mL | B8 |
| 4.62 µg/mL | B9 |
| 4.41 µg/mL | B10 |
| 2.25 µg/mL | B11 |
| 3.29 µg/mL | B12 |
| 2.47 µg/mL | B13 |
| 3.18 µg/mL | B14 |
| 3.39 µg/mL | B15 |
| 2.31 µg/mL | B16 |
| 2.44 µg/mL | B17 |
